Experimental data taken from paper PMC4684078.

Target: mCherry-p62 delta PB1 (recombinant) (human)
Assay: SEC-MALS; size exclusion chromatography with static light scattering (Superdex 200 10/300, MiniDawn Treos); 25 mM HEPES pH 7.5, 500 mM NaCl, 1 mM DTT

Question: “mCherry-p62 delta PB1 (recombinant) (domain or fragment)” was tested. Which stoichiometry N did it give?
Answer: 3
